In publication doi:10.1101/2024.08.29.607757 (bioRxiv, 2024):

T1: NtcA (Synechococcus elongatus PCC7942, UniProt P29283 1-222)
T1 sequence: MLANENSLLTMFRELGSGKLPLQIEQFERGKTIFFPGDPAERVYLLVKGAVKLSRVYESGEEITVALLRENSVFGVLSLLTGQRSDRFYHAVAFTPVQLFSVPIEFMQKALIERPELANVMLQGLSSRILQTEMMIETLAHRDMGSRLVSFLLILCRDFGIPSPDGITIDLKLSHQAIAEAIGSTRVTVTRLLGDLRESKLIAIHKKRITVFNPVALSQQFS

B1: NtcA from Synechococcus elongatus (strain PCC7942) with N-terminal His6 tag (natural protein)
chain: T1 sequence
B2: nicked symmetric glnA half-site NtcA box (NtcA-DNA crystal) (dsDNA)
DNA 1: CATTTTTATGTATC
DNA 2: AGCTGATACATAAAAAT
B3: PipX from Synechococcus elongatus (strain PCC7942) with N-terminal His6 tag (natural protein)
chain: MASENYLNHPTFGLLYQICSFGDSKELFATLYAQRLFFLVAFDARGTRFEPIGRNEARMLVDNRLRQLRRDASLQEYNQLQQVFKQTFL

What was measured:
[1] = target: the molecule itself; assay: crystal structure
[2] = target: T1, NtcA; assay: X-ray crystallography
[3] = target: B1; assay: crystal structure

Binder: B1
binding result [1]: binds

Binder: B2
binding result [2]: binds

Binder: B3
binding result [3]: binds
